Experimental data: US20050255547A1

These substances were tested against oligomerized FasL (assay: cell-based or functional assay).

| inhibition of FasL-induced apoptosis of A20 cells (IC50) [µg/mL] | Substance |
| --- | --- |
| 0.035 | Fas-COMP (receptor) |
| > 1 | Fas-Fc (Fc fusion) |
| 0.08 | FasR:mACRP30 (receptor) |
